From the RNAGym collection of RNA variant scans (doi:10.1021/acssynbio.7b00057)

B1: Pistol ribozyme (parent)
chain: GGGUCGUUGUUCCAUAAUCGCGUGGAUAUGGCACGCAAGUUUCUACCGGGCACCGUAAAUGUCCGACUGGAGCCGUUCGGGCGGCUAUAAACAGACCUCAGGCCCGAAGCGUGGCGGCACCUGCCGCCGGUGGUAAAAAAGAUCGGAAGAGCACACGUCU

Variants of: B1
Experiment: aptazyme ON/OFF ratio, guanine; higher = stronger switching; co-transcriptional cleavage with and without guanine

| Variant | aptazyme ON/OFF ratio |
| --- | --- |
| GGGUCGUCCUGCGAUAAUCGCGUGGAUAUGGCACGCAAGUUUCUACCGGGCACCGUAAAUGUCCGACUGGAGCCGUUCGGGCGGCUAUAAACAGACCUCAGGCCCGAAGCGUGGCGGCACCUGCCGCCGGUGGUAAAAAAGAUCGGAAGAGCACACGUCU [U8C G9C U11G C13G] | 1.19 |
| GGGUCGUCCUGCAAUAAUCGCGUGGAUAUGGCACGCAAGUUUCUACCGGGCACCGUAAAUGUCCGACUGGAGCCGUUCGGGCGGCUAUAAACAGACCUCAGGCCCGAAGCGUGGCGGCACCUGCCGCCGGUGGUAAAAAAGAUCGGAAGAGCACACGUCU [U8C G9C U11G C13A] | 1.09 |
| GGGUCGUCCUGCUAUAAUCGCGUGGAUAUGGCACGCAAGUUUCUACCGGGCACCGUAAAUGUCCGACUGGAGCCGUUCGGGCGGCUAUAAACAGACCUCAGGCCCGAAGCGUGGCGGCACCUGCCGCCGGUGGUAAAAAAGAUCGGAAGAGCACACGUCU [U8C G9C U11G C13U] | 1.1 |
| GGGUCGUCCUGGGAUAAUCGCGUGGAUAUGGCACGCAAGUUUCUACCGGGCACCGUAAAUGUCCGACUGGAGCCGUUCGGGCGGCUAUAAACAGACCUCAGGCCCGAAGCGUGGCGGCACCUGCCGCCGGUGGUAAAAAAGAUCGGAAGAGCACACGUCU [U8C G9C U11G C12G C13G] | 1.12 |
| GGGUCGUCCUGGUAUAAUCGCGUGGAUAUGGCACGCAAGUUUCUACCGGGCACCGUAAAUGUCCGACUGGAGCCGUUCGGGCGGCUAUAAACAGACCUCAGGCCCGAAGCGUGGCGGCACCUGCCGCCGGUGGUAAAAAAGAUCGGAAGAGCACACGUCU [U8C G9C U11G C12G C13U] | 1.09 |
| GGGUCGUCCUGGAAUAAUCGCGUGGAUAUGGCACGCAAGUUUCUACCGGGCACCGUAAAUGUCCGACUGGAGCCGUUCGGGCGGCUAUAAACAGACCUCAGGCCCGAAGCGUGGCGGCACCUGCCGCCGGUGGUAAAAAAGAUCGGAAGAGCACACGUCU [U8C G9C U11G C12G C13A] | 1.12 |
| GGGUCGUCUAUGCAUAAUCGCGUGGAUAUGGCACGCAAGUUUCUACCGGGCACCGUAAAUGUCCGACUGGAGCCGUUCGGGCGGCUAUAAACAGACCUCAGGCCCGAAGCGUGGCGGCACCUGCCGCCGGUGGUAAAAAAGAUCGGAAGAGCACACGUCU [U8C G9U U10A C12G] | 1.27 |
| GGGUCGUCUAUACAUAAUCGCGUGGAUAUGGCACGCAAGUUUCUACCGGGCACCGUAAAUGUCCGACUGGAGCCGUUCGGGCGGCUAUAAACAGACCUCAGGCCCGAAGCGUGGCGGCACCUGCCGCCGGUGGUAAAAAAGAUCGGAAGAGCACACGUCU [U8C G9U U10A C12A] | 1.8 |
| GGGUCGUCUUUGUAUAAUCGCGUGGAUAUGGCACGCAAGUUUCUACCGGGCACCGUAAAUGUCCGACUGGAGCCGUUCGGGCGGCUAUAAACAGACCUCAGGCCCGAAGCGUGGCGGCACCUGCCGCCGGUGGUAAAAAAGAUCGGAAGAGCACACGUCU [U8C G9U C12G C13U] | 1.25 |
| GGGUCGUCUUUGGAUAAUCGCGUGGAUAUGGCACGCAAGUUUCUACCGGGCACCGUAAAUGUCCGACUGGAGCCGUUCGGGCGGCUAUAAACAGACCUCAGGCCCGAAGCGUGGCGGCACCUGCCGCCGGUGGUAAAAAAGAUCGGAAGAGCACACGUCU [U8C G9U C12G C13G] | 1.17 |
| GGGUCGUCUUUGAAUAAUCGCGUGGAUAUGGCACGCAAGUUUCUACCGGGCACCGUAAAUGUCCGACUGGAGCCGUUCGGGCGGCUAUAAACAGACCUCAGGCCCGAAGCGUGGCGGCACCUGCCGCCGGUGGUAAAAAAGAUCGGAAGAGCACACGUCU [U8C G9U C12G C13A] | 1.21 |
| GGGUCGUCUAUAGAUAAUCGCGUGGAUAUGGCACGCAAGUUUCUACCGGGCACCGUAAAUGUCCGACUGGAGCCGUUCGGGCGGCUAUAAACAGACCUCAGGCCCGAAGCGUGGCGGCACCUGCCGCCGGUGGUAAAAAAGAUCGGAAGAGCACACGUCU [U8C G9U U10A C12A C13G] | 1.19 |
| GGGUCGUCUAUAAAUAAUCGCGUGGAUAUGGCACGCAAGUUUCUACCGGGCACCGUAAAUGUCCGACUGGAGCCGUUCGGGCGGCUAUAAACAGACCUCAGGCCCGAAGCGUGGCGGCACCUGCCGCCGGUGGUAAAAAAGAUCGGAAGAGCACACGUCU [U8C G9U U10A C12A C13A] | 1.17 |
| GGGUCGUCUAUAUAUAAUCGCGUGGAUAUGGCACGCAAGUUUCUACCGGGCACCGUAAAUGUCCGACUGGAGCCGUUCGGGCGGCUAUAAACAGACCUCAGGCCCGAAGCGUGGCGGCACCUGCCGCCGGUGGUAAAAAAGAUCGGAAGAGCACACGUCU [U8C G9U U10A C12A C13U] | 1.13 |
| GGGUCGUCCUGGCAUAAUCGCGUGGAUAUGGCACGCAAGUUUCUACCGGGCACCGUAAAUGUCCGACUGGAGCCGUUCGGGCGGCUAUAAACAGACCUCAGGCCCGAAGCGUGGCGGCACCUGCCGCCGGUGGUAAAAAAGAUCGGAAGAGCACACGUCU [U8C G9C U11G C12G] | 1.19 |
| GGGUCGUCCUGUCAUAAUCGCGUGGAUAUGGCACGCAAGUUUCUACCGGGCACCGUAAAUGUCCGACUGGAGCCGUUCGGGCGGCUAUAAACAGACCUCAGGCCCGAAGCGUGGCGGCACCUGCCGCCGGUGGUAAAAAAGAUCGGAAGAGCACACGUCU [U8C G9C U11G C12U] | 1.12 |
| GGGUCGUCCUGUUAUAAUCGCGUGGAUAUGGCACGCAAGUUUCUACCGGGCACCGUAAAUGUCCGACUGGAGCCGUUCGGGCGGCUAUAAACAGACCUCAGGCCCGAAGCGUGGCGGCACCUGCCGCCGGUGGUAAAAAAGAUCGGAAGAGCACACGUCU [U8C G9C U11G C12U C13U] | 1.1 |
| GGGUCGUCCUGUAAUAAUCGCGUGGAUAUGGCACGCAAGUUUCUACCGGGCACCGUAAAUGUCCGACUGGAGCCGUUCGGGCGGCUAUAAACAGACCUCAGGCCCGAAGCGUGGCGGCACCUGCCGCCGGUGGUAAAAAAGAUCGGAAGAGCACACGUCU [U8C G9C U11G C12U C13A] | 1.09 |

| Variant | aptazyme ON/OFF ratio |
| --- | --- |
| GGGUCGUCCUGUGAUAAUCGCGUGGAUAUGGCACGCAAGUUUCUACCGGGCACCGUAAAUGUCCGACUGGAGCCGUUCGGGCGGCUAUAAACAGACCUCAGGCCCGAAGCGUGGCGGCACCUGCCGCCGGUGGUAAAAAAGAUCGGAAGAGCACACGUCU [U8C G9C U11G C12U C13G] | 1.11 |
| GGGUCGUCCUGAGAUAAUCGCGUGGAUAUGGCACGCAAGUUUCUACCGGGCACCGUAAAUGUCCGACUGGAGCCGUUCGGGCGGCUAUAAACAGACCUCAGGCCCGAAGCGUGGCGGCACCUGCCGCCGGUGGUAAAAAAGAUCGGAAGAGCACACGUCU [U8C G9C U11G C12A C13G] | 1.14 |
| GGGUCGUCCUGAUAUAAUCGCGUGGAUAUGGCACGCAAGUUUCUACCGGGCACCGUAAAUGUCCGACUGGAGCCGUUCGGGCGGCUAUAAACAGACCUCAGGCCCGAAGCGUGGCGGCACCUGCCGCCGGUGGUAAAAAAGAUCGGAAGAGCACACGUCU [U8C G9C U11G C12A C13U] | 1.1 |
| GGGUCGUCCUGAAAUAAUCGCGUGGAUAUGGCACGCAAGUUUCUACCGGGCACCGUAAAUGUCCGACUGGAGCCGUUCGGGCGGCUAUAAACAGACCUCAGGCCCGAAGCGUGGCGGCACCUGCCGCCGGUGGUAAAAAAGAUCGGAAGAGCACACGUCU [U8C G9C U11G C12A C13A] | 1.09 |
| GGGUCGUCUAUCCAUAAUCGCGUGGAUAUGGCACGCAAGUUUCUACCGGGCACCGUAAAUGUCCGACUGGAGCCGUUCGGGCGGCUAUAAACAGACCUCAGGCCCGAAGCGUGGCGGCACCUGCCGCCGGUGGUAAAAAAGAUCGGAAGAGCACACGUCU [U8C G9U U10A] | 1.42 |
| GGGUCGUCUUUUCAUAAUCGCGUGGAUAUGGCACGCAAGUUUCUACCGGGCACCGUAAAUGUCCGACUGGAGCCGUUCGGGCGGCUAUAAACAGACCUCAGGCCCGAAGCGUGGCGGCACCUGCCGCCGGUGGUAAAAAAGAUCGGAAGAGCACACGUCU [U8C G9U C12U] | 1.42 |
| GGGUCGUCUUUACAUAAUCGCGUGGAUAUGGCACGCAAGUUUCUACCGGGCACCGUAAAUGUCCGACUGGAGCCGUUCGGGCGGCUAUAAACAGACCUCAGGCCCGAAGCGUGGCGGCACCUGCCGCCGGUGGUAAAAAAGAUCGGAAGAGCACACGUCU [U8C G9U C12A] | 1.37 |
| GGGUCGUCUUUGCAUAAUCGCGUGGAUAUGGCACGCAAGUUUCUACCGGGCACCGUAAAUGUCCGACUGGAGCCGUUCGGGCGGCUAUAAACAGACCUCAGGCCCGAAGCGUGGCGGCACCUGCCGCCGGUGGUAAAAAAGAUCGGAAGAGCACACGUCU [U8C G9U C12G] | 1.42 |
| GGGUCGUCUUUCCAUAAUCGCGUGGAUAUGGCACGCAAGUUUCUACCGGGCACCGUAAAUGUCCGACUGGAGCCGUUCGGGCGGCUAUAAACAGACCUCAGGCCCGAAGCGUGGCGGCACCUGCCGCCGGUGGUAAAAAAGAUCGGAAGAGCACACGUCU [U8C G9U] | 2.46 |
| GGGUCGUCUUUCAAUAAUCGCGUGGAUAUGGCACGCAAGUUUCUACCGGGCACCGUAAAUGUCCGACUGGAGCCGUUCGGGCGGCUAUAAACAGACCUCAGGCCCGAAGCGUGGCGGCACCUGCCGCCGGUGGUAAAAAAGAUCGGAAGAGCACACGUCU [U8C G9U C13A] | 1.08 |
| GGGUCGUCUUUCUAUAAUCGCGUGGAUAUGGCACGCAAGUUUCUACCGGGCACCGUAAAUGUCCGACUGGAGCCGUUCGGGCGGCUAUAAACAGACCUCAGGCCCGAAGCGUGGCGGCACCUGCCGCCGGUGGUAAAAAAGAUCGGAAGAGCACACGUCU [U8C G9U C13U] | 1.27 |
| GGGUCGUCUUUCGAUAAUCGCGUGGAUAUGGCACGCAAGUUUCUACCGGGCACCGUAAAUGUCCGACUGGAGCCGUUCGGGCGGCUAUAAACAGACCUCAGGCCCGAAGCGUGGCGGCACCUGCCGCCGGUGGUAAAAAAGAUCGGAAGAGCACACGUCU [U8C G9U C13G] | 1.03 |
| GGGUCGUCUUUAGAUAAUCGCGUGGAUAUGGCACGCAAGUUUCUACCGGGCACCGUAAAUGUCCGACUGGAGCCGUUCGGGCGGCUAUAAACAGACCUCAGGCCCGAAGCGUGGCGGCACCUGCCGCCGGUGGUAAAAAAGAUCGGAAGAGCACACGUCU [U8C G9U C12A C13G] | 1.12 |
| GGGUCGUCUUUAAAUAAUCGCGUGGAUAUGGCACGCAAGUUUCUACCGGGCACCGUAAAUGUCCGACUGGAGCCGUUCGGGCGGCUAUAAACAGACCUCAGGCCCGAAGCGUGGCGGCACCUGCCGCCGGUGGUAAAAAAGAUCGGAAGAGCACACGUCU [U8C G9U C12A C13A] | 1.28 |
| GGGUCGUCUUUAUAUAAUCGCGUGGAUAUGGCACGCAAGUUUCUACCGGGCACCGUAAAUGUCCGACUGGAGCCGUUCGGGCGGCUAUAAACAGACCUCAGGCCCGAAGCGUGGCGGCACCUGCCGCCGGUGGUAAAAAAGAUCGGAAGAGCACACGUCU [U8C G9U C12A C13U] | 1.19 |
| GGGUCGUCUUUUGAUAAUCGCGUGGAUAUGGCACGCAAGUUUCUACCGGGCACCGUAAAUGUCCGACUGGAGCCGUUCGGGCGGCUAUAAACAGACCUCAGGCCCGAAGCGUGGCGGCACCUGCCGCCGGUGGUAAAAAAGAUCGGAAGAGCACACGUCU [U8C G9U C12U C13G] | 1.04 |
| GGGUCGUCUUUUAAUAAUCGCGUGGAUAUGGCACGCAAGUUUCUACCGGGCACCGUAAAUGUCCGACUGGAGCCGUUCGGGCGGCUAUAAACAGACCUCAGGCCCGAAGCGUGGCGGCACCUGCCGCCGGUGGUAAAAAAGAUCGGAAGAGCACACGUCU [U8C G9U C12U C13A] | 1.25 |
| GGGUCGUCUUUUUAUAAUCGCGUGGAUAUGGCACGCAAGUUUCUACCGGGCACCGUAAAUGUCCGACUGGAGCCGUUCGGGCGGCUAUAAACAGACCUCAGGCCCGAAGCGUGGCGGCACCUGCCGCCGGUGGUAAAAAAGAUCGGAAGAGCACACGUCU [U8C G9U C12U C13U] | 0.959 |
